The source of these data is article PMC4826291.

This experiment deals with BG505 SOSIP.664 gp140 trimer (HIV-1 (strain BG505)) (UniProt Q2N0S6). Kind of experiment: negative-stain EM.

With CH235 Fab, the stoichiometry N (Fabs per trimer) was determined as 1.
